Data published in publication PMC7003530 (Biochemistry, 2019).

Biological target: Factor-inhibiting HIF-1 (human, UniProt Q9NWT6 1-349)
Test: other fluorescence titration

- Kd: 92 ± 9 µM
Binder: H-DESGLPQLTSYDAEVNAPIQGSRNLLQGEELLRALDQVN-OH [39-residue CTAD peptide substrate, human HIF-1α 788–826 with C800A]
